According to publication PMC4711005, “LRRK2 phosphorylates pre-synaptic N-ethylmaleimide sensitive fusion (NSF) protein enhancing its ATPase activity and SNARE complex disassembling rate” (Molecular Neurodegeneration, 2016):

Target: the molecule itself
Test: negative-stain transmission electron microscopy; purified NSF incubated with 1 mM ATP and 2 mM MgCl2, adsorbed to carbon-coated grids, stained with 1 % uranyl acetate

| Protein | stoichiometry N |
| --- | --- |
| Flag-NSF full-length (human, aa 1-744) (enzyme, UniProt P46459 1-744, looked up, N-ethylmaleimide sensitive fusion protein (NSF), human, full-length, aa 1-744; Cloned into the p3XFLAG-CMV-7.1 vector; also called 3xFlag-NSF wt; NSF wild-type; source: kept on the resin or eluted with 3xFlag peptide; also in HEK293T lysate; not shown: Flag, N-terminal, kept) MAGRSMQAARCPTDELSLTNCAVVNEKDFQSGQHVIVRTSPNHRYTFTLKTHPSVVPGSIAFSLPQRKWAGLSIGQEIEVSLYTFDKAKQCIGTMTIEIDFLQKKSIDSNPYDTDKMAAEFIQQFNNQAFSVGQQLVFSFNEKLFGLLVKDIEAMDPSILKGEPATGKRQKIEVGLVVGNSQVAFEKAENSSLNLIGKAKTKENRQSIINPDWNFEKMGIGGLDKEFSDIFRRAFASRVFPPEIVEQMGCKHVKGILLYGPPGCGKTLLARQIGKMLNAREPKVVNGPEILNKYVGESEANIRKLFADAEEEQRRLGANSGLHIIIFDEIDAICKQRGSMAGSTGVHDTVVNQLLSKIDGVEQLNNILVIGMTNRPDLIDEALLRPGRLEVKMEIGLPDEKGRLQILHIHTARMRGHQLLSADVDIKELAVETKNFSGAELEGLVRAAQSTAMNRHIKASTKVEVDMEKAESLQVTRGDFLASLENDIKPAFGTNQEDYASYIMNGIIKWGDPVTRVLDDGELLVQQTKNSDRTPLVSVLLEGPPHSGKTALAAKIAEESNFPFIKICSPDKMIGFSETAKCQAMKKIFDDAYKSQLSCVVVDDIERLLDYVPIGPRFSNLVLQALLVLLKKAPPQGRKLLIIGTTSRKDVLQEMEMLNAFSTTIHVPNIATGEQLLEALELLGNFKDKERTTIAQQVKGKKVWIGIKKLLMLIEMSLQMDPEYRVRKFLALLREEGASPLDFD | 6 |
| NSF T645A (enzyme, human, UniProt P46459 1-744, looked up, NSF, human, phospho-deficient mutant T645A of the NSF wild-type construct (full-length aa 1-744), made by QuickChange mutagenesis; source: HEK293T, expressed and purified) MAGRSMQAARCPTDELSLTNCAVVNEKDFQSGQHVIVRTSPNHRYTFTLKTHPSVVPGSIAFSLPQRKWAGLSIGQEIEVSLYTFDKAKQCIGTMTIEIDFLQKKSIDSNPYDTDKMAAEFIQQFNNQAFSVGQQLVFSFNEKLFGLLVKDIEAMDPSILKGEPATGKRQKIEVGLVVGNSQVAFEKAENSSLNLIGKAKTKENRQSIINPDWNFEKMGIGGLDKEFSDIFRRAFASRVFPPEIVEQMGCKHVKGILLYGPPGCGKTLLARQIGKMLNAREPKVVNGPEILNKYVGESEANIRKLFADAEEEQRRLGANSGLHIIIFDEIDAICKQRGSMAGSTGVHDTVVNQLLSKIDGVEQLNNILVIGMTNRPDLIDEALLRPGRLEVKMEIGLPDEKGRLQILHIHTARMRGHQLLSADVDIKELAVETKNFSGAELEGLVRAAQSTAMNRHIKASTKVEVDMEKAESLQVTRGDFLASLENDIKPAFGTNQEDYASYIMNGIIKWGDPVTRVLDDGELLVQQTKNSDRTPLVSVLLEGPPHSGKTALAAKIAEESNFPFIKICSPDKMIGFSETAKCQAMKKIFDDAYKSQLSCVVVDDIERLLDYVPIGPRFSNLVLQALLVLLKKAPPQGRKLLIIGATSRKDVLQEMEMLNAFSTTIHVPNIATGEQLLEALELLGNFKDKERTTIAQQVKGKKVWIGIKKLLMLIEMSLQMDPEYRVRKFLALLREEGASPLDFD | 6 |
